Measured values taken from the Human Domainome abundance scans (Beltran et al. 2025).
± gives the uncertainty stated by the source.

B1: Tumor protein p73, residues 487 to 549; numbered along this chain, O15350 (parent)
chain: YHADPSLVSFLTGLGCPNCIEYFTSQGLQSIYHLQNLTIEDLGALKIPEQYRMTIWRGLQDLK

Variants of: B1
Assay: abundance fitness (aPCA) (normalised: wild type 0, dead -1); higher = more abundant; growth selection in yeast, the domain comes from the species named
Settings: Homo sapiens

Variant | abundance fitness
YHADPSLVSFLNGLGCPNCIEYFTSQGLQSIYHLQNLTIEDLGALKIPEQYRMTIWRGLQDLK | 0.117 ± 0.083
YHADPSLVSFLTGLGCPNCIEYFTSQGLQSIYHLQNLTIEDLGALKIPEQYRMTIWRGLQDSK | -0.083 ± 0.036
YHADPSLVSFLTGLGCYNCIEYFTSQGLQSIYHLQNLTIEDLGALKIPEQYRMTIWRGLQDLK | 0.017 ± 0.063
YHADPSLVSFLTGLGCDNCIEYFTSQGLQSIYHLQNLTIEDLGALKIPEQYRMTIWRGLQDLK | -0.044 ± 0.051
YHADPSLVSFLTGLGCPNCIEYFTSQGLQSIYHLQNLTIEDLGALKIPVQYRMTIWRGLQDLK | 0.009 ± 0.033
YHADPSLVSFLTGLGYPNCIEYFTSQGLQSIYHLQNLTIEDLGALKIPEQYRMTIWRGLQDLK | -0.078 ± 0.069
YHADPSLVSFLTGLGCPNCIEYFTSQGLQSIMHLQNLTIEDLGALKIPEQYRMTIWRGLQDLK | -0.068 ± 0.064
YHADPSLVYFLTGLGCPNCIEYFTSQGLQSIYHLQNLTIEDLGALKIPEQYRMTIWRGLQDLK | -0.237 ± 0.04
YHADPSLVSFLTGLGCPNCIEYFTSQGLQKIYHLQNLTIEDLGALKIPEQYRMTIWRGLQDLK | -0.03 ± 0.083
YHADPSLVSFLTGLGCPNCIEYFTSQGLQSIYHLQNLTIEDLGALKIPEQYRMTIWRGLQKLK | -0.103 ± 0.047
YHADPSLVSFLTGLGCPNCIEYFTSQGLQSIYHLQNLTIEDLGALKIPEQYRMTIWRGLQCLK | -0.245 ± 0.11
HHADPSLVSFLTGLGCPNCIEYFTSQGLQSIYHLQNLTIEDLGALKIPEQYRMTIWRGLQDLK | -0.075 ± 0.088
THADPSLVSFLTGLGCPNCIEYFTSQGLQSIYHLQNLTIEDLGALKIPEQYRMTIWRGLQDLK | 0.109 ± 0.13
YHADPSLVSFLTGLGCPNCIEYFTSQGLQSIYHLQNLTIEDLGALKIPEQHRMTIWRGLQDLK | -0.086 ± 0.097
YHADPSLVSFLTGLGCPNCIEYFTSQGLQSIYHLQNLTIEDLGALKIPEQLRMTIWRGLQDLK | -0.116 ± 0.058
YHADPSLVSFLTGLGCPNCIEYFTSQGRQSIYHLQNLTIEDLGALKIPEQYRMTIWRGLQDLK | -0.05 ± 0.027
YHADPSLVSFLTGLGCPNCIEYFTSQGLQSIYHLQNLTIEDYGALKIPEQYRMTIWRGLQDLK | -0.02 ± 0.098
YHADPSLVSFLTGLGCPNCIEYFTSQGLQSIYHLQNLTIEELGALKIPEQYRMTIWRGLQDLK | 0.119 ± 0.042
YHADPSLVSFLTGLGCPNCIEYFTSQGLQSIYHLQNLTIEDLGALKIPEEYRMTIWRGLQDLK | 0.047 ± 0.035
YHADPSLVSFLTGLGCPNCIEYFTSQFLQSIYHLQNLTIEDLGALKIPEQYRMTIWRGLQDLK | -1 ± 0.22
YHADPSLVSFLTGLGCPNCIEYFTSQLLQSIYHLQNLTIEDLGALKIPEQYRMTIWRGLQDLK | -1.02 ± 0.1

Variant | abundance fitness
YHADPSLVSFLTGLGCPNCICYFTSQGLQSIYHLQNLTIEDLGALKIPEQYRMTIWRGLQDLK | -0.182 ± 0.07
YHADPSLVSFLTGLGCPNCIKYFTSQGLQSIYHLQNLTIEDLGALKIPEQYRMTIWRGLQDLK | -0.048 ± 0.052
YHADPSLCSFLTGLGCPNCIEYFTSQGLQSIYHLQNLTIEDLGALKIPEQYRMTIWRGLQDLK | 0.006 ± 0.058
YHADPSLASFLTGLGCPNCIEYFTSQGLQSIYHLQNLTIEDLGALKIPEQYRMTIWRGLQDLK | 0.106 ± 0.061
YHADPSLVSFLTGLGCPNCIEYFLSQGLQSIYHLQNLTIEDLGALKIPEQYRMTIWRGLQDLK | -0.037 ± 0.039
YHADPSLVSFLTGLGCPNCIEYFESQGLQSIYHLQNLTIEDLGALKIPEQYRMTIWRGLQDLK | -0.108 ± 0.037
YHADPSLVSFWTGLGCPNCIEYFTSQGLQSIYHLQNLTIEDLGALKIPEQYRMTIWRGLQDLK | -0.914 ± 0.15
YHADPSLVSFGTGLGCPNCIEYFTSQGLQSIYHLQNLTIEDLGALKIPEQYRMTIWRGLQDLK | -0.923 ± 0.075
YHADPSLVSFCTGLGCPNCIEYFTSQGLQSIYHLQNLTIEDLGALKIPEQYRMTIWRGLQDLK | -0.13 ± 0.049
YHADPSLVSFLTGLGCPNCIEYFTSQGLQSIYHLQNLTIEDLGALKIVEQYRMTIWRGLQDLK | -0.924 ± 0.089
YHADPSLVSFLTGLGCPNCIEYFTSQGLQSIYHLQNLTIEDLGALKIPEQYRVTIWRGLQDLK | -0.061 ± 0.021
YHADPSLVSFLTGLGCPLCIEYFTSQGLQSIYHLQNLTIEDLGALKIPEQYRMTIWRGLQDLK | -0.139 ± 0.035
YHADPSLVSFLTGLGCPDCIEYFTSQGLQSIYHLQNLTIEDLGALKIPEQYRMTIWRGLQDLK | 0.049 ± 0.067
YHADPSFVSFLTGLGCPNCIEYFTSQGLQSIYHLQNLTIEDLGALKIPEQYRMTIWRGLQDLK | -0.266 ± 0.073
YHADPSLVSFLTGLGCPNCIEYFTSQGLQSIYHLQNLTIEDLGALKIPEQYRMTIQRGLQDLK | 0.035 ± 0.046
YHADPSLVSFLTGLGCPNCIEYFTSQGLQSIYHLQNLTIEDLGALKIPEQYRMTICRGLQDLK | -0.124 ± 0.11
YHADPSLVSFLTGLGCPNCIEYFTSQGLQSIYHLQNLTIEDLGALKIPEQYRMTIERGLQDLK | -0.047 ± 0.039
YHADPSLVSFLTGGGCPNCIEYFTSQGLQSIYHLQNLTIEDLGALKIPEQYRMTIWRGLQDLK | -0.989 ± 0.079
YHADPSLVSFLTGAGCPNCIEYFTSQGLQSIYHLQNLTIEDLGALKIPEQYRMTIWRGLQDLK | -0.193 ± 0.042
YHADPSLVSFLTGLGCPNCIEYFTSQGLQSIYHLQNLTIEDLGALMIPEQYRMTIWRGLQDLK | -0.155 ± 0.057
YHADPSLVSFLTVLGCPNCIEYFTSQGLQSIYHLQNLTIEDLGALKIPEQYRMTIWRGLQDLK | -0.223 ± 0.054
